Test results from patent US20210261677A1 (ORICELL THERAPEUTICS, published 2021).
Where two headings read alike, the source gives them in different places.

Legend:
[1] = target: T1, human PD-L1 on cells (CHO cells that stably expressed human PD-L1; MDA-MB-231 cells) (human, UniProt Q9NZQ7 19-290); test: flow cytometry on CHO cells stably expressing human PD-L1, anti-human IgG-Fc DyLight 650 detection
T1 construct: whole, on cells; Stably expressed on CHO cells; also called CHO cells expressing human PD-L1
T1 sequence (Q9NZQ7 19-290): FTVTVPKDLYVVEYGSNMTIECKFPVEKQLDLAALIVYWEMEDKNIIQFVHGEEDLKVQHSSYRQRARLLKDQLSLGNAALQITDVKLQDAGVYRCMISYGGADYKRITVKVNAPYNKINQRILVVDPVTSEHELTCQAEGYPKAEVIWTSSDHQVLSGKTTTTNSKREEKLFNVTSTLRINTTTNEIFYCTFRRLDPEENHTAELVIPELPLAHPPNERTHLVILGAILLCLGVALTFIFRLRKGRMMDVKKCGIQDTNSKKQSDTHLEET
Procedure: The mixture was mixed well and incubated at 4° C. for 1 hr. After cell washing, Goat F(ab)₂ Anti-Human IgG-Fc (DyLight 650) (ab98593, Abcam) was added and incubated at 4° C. for 30 min. After cell washing, the fluorescence intensity was detected by a flow cytometer (Intellicyt iQue Screener).

[2] = target: T2, recombinant human PD-L1-His protein (Origincell Therapeutics Co., Ltd.) (human, UniProt Q9NZQ7 19-238, limits assumed); test: BLI (Octet RED384), antibody on AHC sensor, PD-L1-His in solution
T2 construct: not shown: His tag
T2 sequence (Q9NZQ7 19-238 limits assumed): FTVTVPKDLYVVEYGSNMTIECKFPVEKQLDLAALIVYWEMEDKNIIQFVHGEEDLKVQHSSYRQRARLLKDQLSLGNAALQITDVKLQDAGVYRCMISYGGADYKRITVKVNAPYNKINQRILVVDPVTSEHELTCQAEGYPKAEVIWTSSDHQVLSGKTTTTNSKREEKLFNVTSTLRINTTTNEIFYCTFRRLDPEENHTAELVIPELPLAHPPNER

[3] = target: T1, human PD-L1 on cells (CHO cells that …); test: flow cytometry competition: biotin-labelled human PD-1-Fc at a subsaturated concentration on CHO cells stably expressing human PD-L1, antibody titrated, streptavidin R-PE detection
Procedure: (§1) After cell washing, Streptavidin R-PE Conjugate (life technology, SA10041) was added and incubated (4° C., 30 min). After cell washing, the fluorescence intensity was detected by a flow cytometer (Intellicyt iQue Screener).

[4] = target: T3, mouse PD-L1 on CHO cells that stably expressed mouse PD-L1 (mouse, UniProt Q9EP73 19-290); test: flow cytometry competition: biotin-labelled mouse PD-1-Fc at a subsaturated concentration on CHO cells stably expressing mouse PD-L1, antibody titrated, streptavidin R-PE detection
T3 construct: whole, on cells; also called CHO cells expressing mouse PD-L1
T3 sequence (Q9EP73 19-290): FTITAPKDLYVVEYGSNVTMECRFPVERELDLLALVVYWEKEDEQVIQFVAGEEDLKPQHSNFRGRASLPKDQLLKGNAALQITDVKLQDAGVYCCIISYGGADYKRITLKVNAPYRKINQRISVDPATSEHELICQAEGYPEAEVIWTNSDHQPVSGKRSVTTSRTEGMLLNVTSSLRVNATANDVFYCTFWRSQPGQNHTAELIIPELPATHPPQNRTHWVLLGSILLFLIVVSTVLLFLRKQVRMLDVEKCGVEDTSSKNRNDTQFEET
Procedure: as §1

[5] = target: T3, mouse PD-L1 on CHO cells that stably …; test: flow cytometry on CHO cells stably expressing mouse PD-L1, anti-human IgG-Fc DyLight 650 detection
Procedure: The mixture was mixed well and incubated at 4° C. for 1 hr. After cell washing, Goat F(ab′)₂ Anti-Human IgG-Fc (DyLight 650) (ab98593) was added and incubated at 4° C. for 30 min. After cell washing, the fluorescence intensity was detected by a flow cytometer (Intellicyt iQue Screener).

[6] = target: T4, recombinant human CD137-His protein (Origincell Therapeutics Co., Ltd.) (human, UniProt Q07011 24-186, limits assumed); test: BLI (Octet RED384), antibody on AHC sensor, CD137-His in solution
T4 construct: also called Human 4-1BB-His; not shown: His tag
Procedure: (§2) The antigen-antibody binding kinetics were analyzed by the biofilm interference (BLI) technology, using a molecular interaction analyzer (Octet RED384, purchased from Pall ForteBio Analytics Co., Ltd.) and using a PBS buffer containing 0.1% BSA and 0.02% Tween 20. […] The AHC sensor was regenerated by glycine pulses and then reused. The obtained results would be analyzed by Octet Data Analysis 9.0 software (Pall ForteBio Analytics Co., Ltd.) to give the KD, Kₒₙ (1/Ms) and Koff (1/s).

[7] = target: T2, recombinant human PD-L1-His protein …; test: BLI (Octet RED384), antibody on AHC sensor, PD-L1-His in solution; remark: listed apart in the source
Procedure: as §2

[8] = target: T1, human PD-L1 on cells (CHO cells that …); test: flow cytometry on MDA-MB-231 cells (human PD-L1), anti-human IgG-Fc DyLight 650 detection
Procedure: Human breast cell strain MDA-MB-231 (Shanghai Chinese Academy of Sciences Cell Library) highly expresses the human PD-L1 molecule. […] After cell washing, Goat F(ab′)₂ Anti-Human IgG-Fc (DyLight 650) (ab98593, abcam) was added and incubated at 4° C. for 30 min. After cell washing, the fluorescence intensity was detected by a flow cytometer (Intellicyt iQue Screener).

[9] = target: T3, mouse PD-L1 on CHO cells that stably …; test: flow cytometry competition: biotin-labelled mouse PD-1-Fc at a subsaturated concentration on CHO cells stably expressing mouse PD-L1, antibody titrated, streptavidin R-PE detection; remark: listed apart in the source
Procedure: as §1

[10] = target: T1, human PD-L1 on cells (CHO cells that …); test: flow cytometry competition: biotin-labelled human PD-1-Fc at a subsaturated concentration on CHO cells stably expressing human PD-L1, antibody titrated, streptavidin R-PE detection; remark: listed apart in the source
Procedure: as §1

[11] = target: T5, recombinant human PD-L1-Fc protein (Origincell Therapeutics Co., Ltd.) (human, UniProt Q9NZQ7 19-238, limits assumed); test: BLI (Octet RED384), biotinylated antigen on SA sensor, antibody in solution
T5 construct: Labeled with biotin (EZ-Link Sulfo-NHS-LC-Biotin) for the BLI assays; unlabeled in the phage ELISA; also called Human PD-L1-Fc-Biotin; not shown: Fc part
T5 sequence (Q9NZQ7 19-238 limits assumed): as the sequence (Q9NZQ7 19-238 limits assumed) above
Procedure: as §2, with “The recombinant human PD-L1-Fc protein and the recombinant mouse PD-L1-Fc were labeled with biotin (EZ-Link Sulfo-NHS-LC-Biotin, Pierce, 21327). The” for “The”, “The” for “The AHC sensor was regenerated by glycine pulses and then reused. The”

[12] = target: T6, recombinant mouse PD-L1-Fc protein (M5251, ACROBiosystems Inc.) (mouse, UniProt Q9EP73 19-238); test: as above
T6 construct: Bought; Labeled with biotin for the BLI assays; unlabeled in the phage ELISA; also called Mouse PD-L1-Fc-Biotin; not shown: Fc part
T6 sequence (Q9EP73 19-238 limits assumed): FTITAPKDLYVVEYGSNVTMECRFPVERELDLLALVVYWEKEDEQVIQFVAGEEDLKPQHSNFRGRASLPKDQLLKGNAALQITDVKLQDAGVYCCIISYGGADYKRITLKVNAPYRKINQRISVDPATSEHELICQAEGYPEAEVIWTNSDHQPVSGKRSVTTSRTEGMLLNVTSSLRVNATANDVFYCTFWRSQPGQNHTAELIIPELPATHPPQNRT
Procedure: as §2, with “The recombinant human PD-L1-Fc protein and the recombinant mouse PD-L1-Fc were labeled with biotin (EZ-Link Sulfo-NHS-LC-Biotin, Pierce, 21327). The” for “The”, “The” for “The AHC sensor was regenerated by glycine pulses and then reused. The”

Binder | EC50 (read off the curve) [1] [nM] | Kd [2] [nM] | koff [2] [s⁻¹] | kon [2] [M⁻¹ s⁻¹] | IC50 (read off the curve) [3] [nM] | IC50 (read off the curve) [4] [nM] | EC50 (read off the curve) [5] [nM] | Kd [6] [nM] | koff [6] [s⁻¹] | kon [6] [M⁻¹ s⁻¹] | Kd [7] [nM] | koff [7] [s⁻¹] | kon [7] [M⁻¹ s⁻¹] | EC50 (read off the curve) [8] [nM] | IC50 (read off the curve) [9] [nM] | IC50 (read off the curve) [10] [nM] | other results
PD-L1 antibody YN-039 (antibody, human IgG1, lambda, V domains shown, full-length IgG1,lambda) VH: QVQLVQSGAEVKKPGSSVKVSCKASRGPFSTYAISWVRQAPGQGLEWMGRIIPILGIANYAQKFQGRVTITADKSTSTAYMELSSLRSEDTAVYYCARTMGEYSYGNYDYWGQGTLVTVSS VL: QSALTQPASVSGSPGQSITISCTGTVSDVGGYNEVSWYQQHPGKAPKLMIYENSIRPSGVSHRFSGSKSGNTASLTISGLQAEDEADYYCQSYDSSLSGTVFGGGTKLTVLG | 3 to 4 | 0.485 | 0.000173 | 356000 | ~3 | ~4 | ~6 |  |  |  |  |  |  |  |  |  | 
PD-L1 antibody YN-037 (antibody, human IgG1, lambda, V domains shown, full-length IgG1,lambda) VH: QVQLVQSGAEVKKPGSSVKVSCKASRGPFSTYAISWVRQAPGQGLEWMGRIIPILGIANYAQKFQGRVTITADKSTSTAYMELSSLRSEDTAVYYCARTMGEYSYGNYDYWGQGTLVTVSS VL: QSALTQPASVSGSPGQSITISCTGTSSSVGGYREVSWYQQHPGKAPKLMIYENSIRPSGVSHRFSGSKSGNTASLTISGLQAEDEADYYCQSYDSSLSGTVFGGGTKLTVLG | 3 to 4 | 0.382 | 0.000136 | 355000 | ~3 | ~4 | ~6 |  |  |  |  |  |  |  |  |  | 
PD-L1 antibody YN-038 (antibody, human IgG1, lambda, V domains shown, full-length IgG1,lambda) VH: QVQLVQSGAEVKKPGSSVKVSCKASRGPFSTYAISWVRQAPGQGLEWMGRIIPILGIANYAQKFQGRVTITADKSTSTAYMELSSLRSEDTAVYYCARTMGEYSYGNYDYWGQGTLVTVSS VL: QSALTQPASVSGSPGQSITISCTGTRSDVGGYNEVSWYQQHPGKAPKLMIYENSIRPSGVSHRFSGSKSGNTASLTISGLQAEDEADYYCQSYDSSLSGTVFGGGTKLTVLG | 3 to 4 | 0.447 | 0.000156 | 350000 | ~3 | ~4 | ~6 |  |  |  |  |  |  |  |  |  | 
anti-PD-L1/CD137 bispecific antibody YN-051 (bispecific antibody, human IgG1, lambda, N297A, First polypeptide (built from the YN-035 heavy chain and the YN-006 heavy and light chain genes) and second polypeptide (= YN-035 light chain); SDS-PAGE: about 200 kDa non-reduced, about 75 and 25 kDa reduced) heavy: not shown light: QSALTQPASVSGSPGQSITISCTGTVSEVGGYNEVSWYQQHPGKAPKLMIYGNSNRPSGVSNRFSGSKSGNTASLTISGLQAEDEADYYCQSYDSSLSGTVFGGGTKLTVLGQPKAAPSVTLFPPSSEELQANKATLVCLISDFYPGAVTVAWKADSSPVKAGVETTTPSKQSNNKYAASSYLSLTPEQWKSHRSYSCQVTHEGSTVEKTVAPTECS |  |  |  |  |  |  |  | 1.64 | 0.000147 | 89900 | 0.517 | 0.000275 | 532000 | ~1 | ~5 | ~2 | 
anti-PD-L1/CD137 bispecific antibody YN-007 (bispecific antibody, First polypeptide (built from the YN-003 heavy chain and the YN-006 heavy and light chain genes) and second polypeptide (= YN-003 light chain); SDS-PAGE: about 200 kDa non-reduced, about 75 and 25 kDa reduced) heavy: not shown light: QSALTQPASVSGSPGQSITISCTGTSSDVGGYNYVSWYQQHPGKAPKLMIYGNSNRPSGVSNRFSGSKSGNTASLTISGLQAEDEADYYCQSYDSSLSGSVFGGGTKLTVLGQPKAAPSVTLFPPSSEELQANKATLVCLISDFYPGAVTVAWKADSSPVKAGVETTTPSKQSNNKYAASSYLSLTPEQWKSHRSYSCQVTHEGSTVEKTVAPTECS |  |  |  |  |  |  |  |  |  |  |  |  |  |  |  |  | Kd [11]: 0.525 nM; koff [11]: 0.000592 s⁻¹; kon [11]: 1.13e+06 M⁻¹ s⁻¹; Kd [12]: 1.34 nM; koff [12]: 0.00109 s⁻¹; kon [12]: 810000 M⁻¹ s⁻¹
anti-PD-L1/CD137 bispecific antibody YN-052 (bispecific antibody, human IgG1, lambda, N297A, First polypeptide (built from the YN-036 heavy chain and the YN-006 heavy and light chain genes) and second polypeptide (= YN-036 light chain); SDS-PAGE: about 200 kDa non-reduced, about 75 and 25 kDa reduced) heavy: not shown light: QSALTQPASVSGSPGQSITISCTGTVSEVGGYNEVSWYQQHPGKAPKLMIYGNSNRPSGVSNRFSGSKSGNTASLTISGLQAEDEADYYCQSYDSSLSGTVFGGGTKLTVLGQPKAAPSVTLFPPSSEELQANKATLVCLISDFYPGAVTVAWKADSSPVKAGVETTTPSKQSNNKYAASSYLSLTPEQWKSHRSYSCQVTHEGSTVEKTVAPTECS |  |  |  |  |  |  |  | 2.08 | 0.000174 | 83700 | 0.572 | 0.000257 | 448000 | ~2 | ~5 | ~3 | 
